Numbering of substitutions follows the chain as printed.
Columns and labels:
Test in all cases: cell-based or functional assay
[1] = target: T1, factor VIIIa A1/A3C1C2 dimer, wild type (human, UniProt P00451 20-391; P00451 1709-2351)
T1 sequence 1: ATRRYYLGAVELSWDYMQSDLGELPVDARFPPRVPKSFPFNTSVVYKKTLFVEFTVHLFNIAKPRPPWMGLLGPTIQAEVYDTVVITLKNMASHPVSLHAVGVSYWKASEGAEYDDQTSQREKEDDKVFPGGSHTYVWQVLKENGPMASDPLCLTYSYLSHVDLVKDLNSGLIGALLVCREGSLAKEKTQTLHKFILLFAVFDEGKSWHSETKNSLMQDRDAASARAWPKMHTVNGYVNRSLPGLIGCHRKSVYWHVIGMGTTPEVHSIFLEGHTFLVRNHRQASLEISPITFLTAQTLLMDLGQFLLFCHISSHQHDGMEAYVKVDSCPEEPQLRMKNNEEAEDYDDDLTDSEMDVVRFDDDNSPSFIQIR
T1 sequence 2: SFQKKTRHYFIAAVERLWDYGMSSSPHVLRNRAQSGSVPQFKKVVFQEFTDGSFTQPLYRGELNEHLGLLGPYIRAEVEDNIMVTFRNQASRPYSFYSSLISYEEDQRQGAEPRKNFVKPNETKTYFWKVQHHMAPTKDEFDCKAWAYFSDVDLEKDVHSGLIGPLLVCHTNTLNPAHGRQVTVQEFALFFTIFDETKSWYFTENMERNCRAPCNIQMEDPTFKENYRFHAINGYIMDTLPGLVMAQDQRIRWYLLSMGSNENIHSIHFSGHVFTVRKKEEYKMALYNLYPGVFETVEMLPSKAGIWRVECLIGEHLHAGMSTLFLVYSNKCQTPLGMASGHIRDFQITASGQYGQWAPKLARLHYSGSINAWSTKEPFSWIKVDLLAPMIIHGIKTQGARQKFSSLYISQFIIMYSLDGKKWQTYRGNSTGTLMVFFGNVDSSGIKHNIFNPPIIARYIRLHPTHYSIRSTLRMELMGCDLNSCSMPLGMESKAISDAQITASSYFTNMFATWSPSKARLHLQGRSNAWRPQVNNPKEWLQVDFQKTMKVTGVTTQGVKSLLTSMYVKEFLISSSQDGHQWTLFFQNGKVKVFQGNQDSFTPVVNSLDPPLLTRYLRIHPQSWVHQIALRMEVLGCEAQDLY

[2] = target: T2, factor VIIIa A1/A3C1C2 dimer, Glu1984Ala (human, UniProt P00451 20-391; P00451 1709-2351)
T2 sequence 1: T1 sequence 1
T2 sequence 2: T1 sequence 2 with E295A

[3] = target: T3, factor VIIIa A1/A3C1C2 dimer, Glu1984Val (human, UniProt P00451 20-391; P00451 1709-2351)
T3 sequence 1: T1 sequence 1
T3 sequence 2: T1 sequence 2 with E295V

[4] = target: T4, factor VIIIa A1/A3C1C2 dimer, E113A and E1984V (human, UniProt P00451 20-391; P00451 1709-2351)
T4 chain 1: T1 sequence 1 with E113A
T4 chain 2: T1 sequence 2 with E295V

B1: factor VIIIa A2 subunit, wild type (other)
chain: SVAKKHPKTWVHYIAAEEEDWDYAPLVLAPDDRSYKSQYLNNGPQRIGRKYKKVRFMAYTDETFKTREAIQHESGILGPLLYGEVGDTLLIIFKNQASRPYNIYPHGITDVRPLYSRRLPKGVKHLKDFPILPGEIFKYKWTVTVEDGPTKSDPRCLTRYYSSFVNMERDLASGLIGPLLICYKESVDQRGNQIMSDKRNVILFSVFDENRSWYLTENIQRFLPNPAGVQLEDPEFQASNIMHSINGYVFDSLQLSVCLHEVAYWYILSIGAQTDFLSVFFSGYTFKHKMVYEDTLTLFPFSGETVFMSMENPGLWILGCHNSDFRNRGMTALLKVSSCDKNTGDYYEDSYEDISAYLLSKNNAIEPR
Decay rate relative to wild type, Factor VIIIa (1.5 nM, factor IXa absent) [1]: 1 relative to wild type | Decay rate, Factor VIIIa (1.5 nM factor VIIIa, factor IXa absent) [1]: 0.14 min⁻¹ | Decay rate relative to wild type, Factor VIIIa (1.5 nM, factor IXa absent) [2]: 0.41 relative to wild type | Decay rate, Factor VIIIa (1.5 nM factor VIIIa, factor IXa absent) [2]: 0.0574 min⁻¹ | Decay rate relative to wild type, Factor VIIIa (1.5 nM, factor IXa absent) [3]: 0.34 relative to wild type | Decay rate, Factor VIIIa (1.5 nM factor VIIIa, factor IXa absent) [3]: 0.0471 min⁻¹ | Decay rate relative to wild type, Factor VIIIa (1.5 nM, factor IXa absent) [4]: 0.4 relative to wild type | Decay rate, Factor VIIIa (1.5 nM factor VIIIa, factor IXa absent) [4]: 0.0567 min⁻¹

From patent US20090118184A1 (UNIVERSITY OF ROCHESTER, published 2009)
